Data on two molecules can be found in patent publication US20250302982A1 (Genmab, published 2025).

In test [1] the target is T1, Tissue Factor (TF) (human, UniProt P13726 33-295). As to the kind of experiment: cell-based or functional assay.
Test [2] has as its target T1, Tissue Factor (TF). As to the kind of experiment: flow cytometry on HNSCC cell lines, 2 µg/ml tisotumab, PE-conjugated goat (Fab')2 anti-human IgG secondary.

B1: tisotumab vedotin (antibody, IgG1, V domains shown)
VH: EVQLLESGGGLVQPGGSLRLSCAASGFTFSNYAMSWVRQAPGKGLEWVSSISGSGDYTYYTDSVKGRFTISRDNSKNTLYLQMNSLRAEDTAVYYCARSPWGYYLDSWGQGTLVTVSS
VL: DIQMTQSPPSLSASAGDRVTITCRASQGISSRLAWYQQKPEKAPKSLIYAASSLQSGVPSRFSGSGSGTDFTLTISSLQPEDFATYYCQQYNSYPYTFGQGTKLEIK
modifications: MC-vc-PAB-MMAE (vcMMAE) attached to sulphydryl residues of the antibody; positions not given
In the case of B1, in the test with Tissue Factor (TF) [1], the “IC50 of cell killing (percent viable cells, Cell Titer-Blue, day 5); HNSCC cell lines with intermediate and high TF expression” value was 2.5 to 7 ng/mL; the “IC50 of cell killing (percent viable cells, Cell Titer-Blue, day 5); primary keratinocytes and VU-SCC-OE (low TF expression)” value was more than 25 ng/mL.

B2: tisotumab (antibody, IgG1, V domains shown)
VH: EVQLLESGGGLVQPGGSLRLSCAASGFTFSNYAMSWVRQAPGKGLEWVSSISGSGDYTYYTDSVKGRFTISRDNSKNTLYLQMNSLRAEDTAVYYCARSPWGYYLDSWGQGTLVTVSS
VL: DIQMTQSPPSLSASAGDRVTITCRASQGISSRLAWYQQKPEKAPKSLIYAASSLQSGVPSRFSGSGSGTDFTLTISSLQPEDFATYYCQQYNSYPYTFGQGTKLEIK
notes: Tested as IgG1 (IgG1-1015-011, Genmab); also called antibody 011; IgG1-1015-011
B2: the binding result in the test with Tissue Factor (TF) [2] is reported as “binds”.
